Results from article PMC7192610.
Where two headings read alike, the source gives them in different places.

B1: CCNG1 WT (dsDNA)
DNA 1: AAACTCTACCGCTGTTGTGAGCACAAGCCCAGGCTAGTCCGAGGCTGGAGGGGCGGAGCC
DNA 2: GGCTCCGCCCCTCCAGCCTCGGACTAGCCTGGGCTTGTGCTCACAACAGCGGTAGAGTTT
B2: CCNG1 L2 (dsDNA)
DNA 1: TACAAGGAGGCTTTTCATCCGCACAAGCCCAGGCTAGTCCGAGGCTGGAGGGGCGGAGCC
DNA 2: GGCTCCGCCCCTCCAGCCTCGGACTAGCCTGGGCTTGTGCGGATGAAAAGCCTCCTTGTA

Experiments:
GST-p53(1-393) [1] = target: T1, GST-p53(1-393) (Homo sapiens, UniProt P04637 1-393); test: EMSA
T1 sequence (P04637 whole entry): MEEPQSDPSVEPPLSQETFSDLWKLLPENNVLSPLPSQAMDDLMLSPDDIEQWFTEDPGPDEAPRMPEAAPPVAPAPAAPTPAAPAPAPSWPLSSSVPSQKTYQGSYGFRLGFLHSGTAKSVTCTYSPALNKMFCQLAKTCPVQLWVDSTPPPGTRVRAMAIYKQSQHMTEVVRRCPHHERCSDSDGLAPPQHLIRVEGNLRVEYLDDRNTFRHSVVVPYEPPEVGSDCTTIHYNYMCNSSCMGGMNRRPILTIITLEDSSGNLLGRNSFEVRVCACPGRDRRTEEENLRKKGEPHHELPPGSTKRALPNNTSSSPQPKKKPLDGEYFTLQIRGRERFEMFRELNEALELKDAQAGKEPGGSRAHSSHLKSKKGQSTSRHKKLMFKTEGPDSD

GST-p53(1-393) [2] = target: T1, GST-p53(1-393); test: EMSA; remark: listed apart in the source

Binder | binding result (GST-p53(1-393) [1]) | binding result (GST-p53(1-393) [2])
B1 | binds | –
B2 | – | binds
